Legend:
[1] = target: flotillin-associated rhodopsin from the marine SAG AG-319-B05 Pseudothioglobus (PsFAR) (Pseudothioglobus sp. (SAG AG-319-B05)); assay: cryo-EM structure
[2] = target: proteorhodopsin from the marine SAG AG-319-B05 Pseudothioglobus (PsPR) (Pseudothioglobus sp. (SAG AG-319-B05)); assay: cryo-EM structure

| Substance | stoichiometry N [1] | stoichiometry N [2] |
| --- | --- | --- |
| flotillin-associated rhodopsin from the marine SAG AG-319-B05 Pseudothioglobus (PsFAR) (natural protein) | 5 | – |
| proteorhodopsin from the marine SAG AG-319-B05 Pseudothioglobus (PsPR) (natural protein) | – | 5 |

— doi:10.1101/2025.04.29.651185
